# Assay results from PMC8391806 (2021).
# B1: regulatory domain of MKK4 (residues 12–86) with N-terminal thioredoxin and 6xHis tag, unlabeled, for ITC (domain or fragment)
# chain: SGGGSGSGTPGPVGSPAPGHPAVSSMQGKRKALKLNFANPPFKSTARFTLNPNPTGVQNPHIERLRTHSIESSGK
# Target: p38α kinase (residues 1–360 of human p38α) (human, UniProt Q16539 1-360)
# Assay: ITC
# p38α kinase (residues 1–360 of human p38α), sequence (Q16539 whole entry, the tested form may be a part): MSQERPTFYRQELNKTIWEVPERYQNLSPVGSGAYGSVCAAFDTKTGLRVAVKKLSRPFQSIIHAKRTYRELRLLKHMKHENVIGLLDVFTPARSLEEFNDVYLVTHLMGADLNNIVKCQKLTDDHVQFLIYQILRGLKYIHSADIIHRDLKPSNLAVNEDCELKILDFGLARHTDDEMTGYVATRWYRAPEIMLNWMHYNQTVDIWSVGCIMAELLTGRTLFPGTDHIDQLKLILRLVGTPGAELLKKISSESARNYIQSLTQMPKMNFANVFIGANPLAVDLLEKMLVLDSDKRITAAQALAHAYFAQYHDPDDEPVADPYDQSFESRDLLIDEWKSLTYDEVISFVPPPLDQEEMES
binder,measurement,value
B1,Kd,4.1 µM
